Reference: the DeepSol protein solubility set

Assay: soluble on expression in E. coli; label from the status in PepcDB or PDB records
For “MHHHHHHSSGVDLGTENLYFQSNAMNDPKVIVALDYDNLADALAFVDKIDPSTCRLKVGKEMFTLFGPDFVRELHKRGFSVFLDLKFHDIPNTCSKAVKAAAELGVWMVNVHASGGERMMAASREILEPYGKERPLLIGVTVLTSMESADLQGIGILSAPQDHVLRLATLTKNAGLDGVVCSAQEASLLKQHLGREFKLVTPGIRPAGSEQGDQRRIMTPAQAIASGSDYLVIGRPITQAAHPEVVLEEINSSLV”, the “soluble on expression in E. coli” value was “soluble”. In the case of “MGKKVVVIGAGPGGIMAAGKAAERGHNVTLFEKNDRIGKKILISGKGRCNITNNTDIEGLIENIPGNGNFLYSAFYTFSNHDLIEFFEQYGLKTKVERGGRVFPVSDDAKDVNNALLKFLNKAKVNLRLNSPVQEIKAKNNTVTGVVLKDGTEVPCDAVVLATGGASYPGTGSTGDGYVMAKKLGHTIVDLKPSLVPLLAEEEWVKELQGLSLKNVSITILSKAGKKIYTDFGEMLFTHFGVSGPIILSASRHILDYDYKNVKLVIDLKPALSEEKLDERILRDFEKYSRKQYKNSLDDLLPKKMIPVIVKLSGIEPEKFVNQIKKEERRALVRLLKNLTLNINGSRPIKEAIVTAGGVSTDEINPSTMESKLVKGLYFAGEIIDVDGYTGGFNLTIAFSTGYLAGVSC”, the “soluble on expression in E. coli” value is reported as “soluble”. For “MKPYERLLEHNIKPSMQRIAIMEYLMNHPIHPSADDIYTALSPSMPTLSKTTVYNTLRLFSEQGAALMLTIDEKNTNFDADTSVHSHFLCRYCGHIYDLKSPEAVKKVESLEMDGHQVTEVHYYYKGICKNCLRKDKETRID”, the “soluble on expression in E. coli” value was “not soluble”. In the case of “MIKVDQHYFELIENYRECFNEEQFIARYSDILDKYDYIVGDYGYDQLRLKGFYKDSNKKAEMSKRFSNIQDYIFEYCNFGCPYFVLRHLSKQEVKKLIEEVHPSDVIDDDNKLQDVKIKPTIQDTEHLEHHHHHH”, the “soluble on expression in E. coli” value is reported as “not soluble”. In the case of “MAPITVGDVVPDGTISFFDENDQLQTVSVHSIAAADGFLDFDLRIGVFGFSEVSMSHVPGFIGKAEELKSKGIDEIICFSVNDPFVMKAWGKTYQENKHVKFVADGSGEYTHLLGLELDLKDKGLGIRSRRFALLLDNLKVTVANVENGGEFTVSSAEDILKALLEHHHHHH”, the “soluble on expression in E. coli” value is reported as “not soluble”. In the case of “MNSFYSQEELKKIGFLSVGKNVLISKKASIYNPGVISVGNNVRIDDFCILSGKVTIGSYSHIAAYTALYGGEVGIEMYDFANISSRTIVYAAIDDFSGNALMGPTIPNQYKNVKTGKVILKKHVIIGAHSIIFPNVVIGEGVAVGAMSMVKESLDDWYIYVGVPVRKIKARKRKIVELENEFLKSMNSLEHHHHHH”, the “soluble on expression in E. coli” value is reported as “not soluble”. With “MKSATSAQRPYQEVGAMIRDLIIKTPYNPGERLPPEREIAEMLDVTRTVVREALIMLEIKGLVEVRRGAGIYVLDNSGSQNTDSPDANVCNDAGPFELLQARQLLESNIAEFAALQATREDIVKMRQALQLEERELASSAPGSSESGDMQFHLAIAEATHNSMLVELFRQSWQWRENNPMWIQLHSHLDDSLYRKEWLGDHKQILAALIKKDARAAKLAMWQHLENVKQRLLEFSNVDDIYFDGYLFDSWPLDKVDA” the “soluble on expression in E. coli” value was “soluble”. With “MGSDKIHHHHHHMKIQPLPPLNSLHAFESAARHLSFTLAAKELNVTQGAISRQVRLLEDYLGKALFTRTTRSMSLTPTGAQYYETVRECMLHLARATGDIRQWQGNQQVTVATSTAMASLWLLPKVSEFQSAHENIDLRIIAHDHVKDYARLDSDLALYYCNPPPKDMAVTPLFSEEIFLVCSPAYLARHPQLSSIEGLSSCTWLWLEDSQRDWVGWPEWFKRLGYEPMTPKHRVNINSYGMLIQSAISGQGVALAWGNLVDDALSTGALVKPNDVVLQTDAKFCLLESSTERGPRESVRLFRDWLMALPSVQK” the “soluble on expression in E. coli” value was “not soluble”. In the case of “WCAETAPEPQVEPEPEVLPEPDRGSATPAELGINSLDIVRLANRIEDATGTRPSLATLLNQPWQESLAMVEVLEPRPALASEQKPELVPDRDREVIDVVGAGMALGARIRAEVPISEEPVEDQFVQVGQWLKQLRAVVEPAGCMQVTPPSGNILCAIDITPGEKADVSDHAPLTPLQLGYLVGRADTWLGEPVAPHYYTEVEVADLDVVALQRALDEVVRAHPALMLGVHDDGNQGLSEALRPRLVVTDLRDHPDPDGELERIRAVGCAGVSDPLGTAWFQLRATLLPTAVR”, the “soluble on expression in E. coli” value is reported as “not soluble”. In the case of “MGSDKIHHHHHHMRSKGVMIPRIMSTQHPDNYSIPFFASSPILGGEDEITEAFYAFSVLGADEQMWDFEGKEVDEFVVKKLLERYPTFFKENILGEDLRLTPRVPNPSVEKAEAKLLLETLQGITRAADYARVFYLDNIAPIFEVILPMTTSLAEMLRVHELYRKIVSLSGEVIYDVTVKEWIGEFYPKEINVIPLFETKVALLKSGRIIREYIGRKRPEYLRVFFARSDPAMNYGLLSAVTYVKKALEQVGEVEEETSTPIYPIIGVGSPPFRGGMRPENVKKVLKEYPSVQTYTIQSSFKYDHPTKDVVKAVEIVKSKKREAPDPLDIPEFIQLYEIEYQKQLKILAPYIRNIVTRIPDRRKRKLHIGLFGYSRNVGGLSLPRVIKFTASLYSIGLPPELLGLNELSDNQLDSISEYYKNLYDDLEFAMRFFSFKVAERVGLRELSEKVKEFKPDIDDEYVREAELVFRGQGDVMKLAQIRGFLG”, the “soluble on expression in E. coli” value is reported as “not soluble”. For “GRDFRFSISPNFTWVKNAVEKLANGATEEINNNRIVGQPIGIIYGYETDGLFVDQAEIDAAPEQLVSKSGLKPGYVKYKDISGPDGVPDGKVDAQYDRTVLGSTTPKFYYGLNLSASYKGFDFSALLQGLGGHKRLIGSYMAYAFYNGGQIQRWQAESCWKEENPDKWAEYPRLETLNMNDTNLQTSDYWVRNASFLRVKNIQIGYTFPKAWTKKIGLENVRVYVSGQNLFSFNSFYKGWDPENEIGTGDSPSYYPVNSIYSFGFNFKF”, the “soluble on expression in E. coli” value was “not soluble”. With “MNELVSIITPCYNSAATIRETIRSVIAQSYVNWELLIIDDCSNDDSVKIIMEFMDTDSRIYYLKTEHPSGGPTLPRNVGIQAAKGRFIAFLDSDDIWLPNKLSTQLPLFINDNVAIVYSDYEKISEEGNRTGRIVKSDPYHHYKSLLCGNELGCLTVVYDTQKIGKRYFKFIGHEDYNLWLDILKEGFIAINTNICLALYRIRKGSVSSNKLRVIKWIWHIYRVEQKKTIWLSLYYSLSDLNKSLFKYLKLEHHHHHH” the “soluble on expression in E. coli” value was “soluble”. For “MANIEIYTKATCPFCHRAKALLNSKGVSFQEIAIDGDAVKREEMIKRSGRTTVPQIFIDAQHIGGCDDLYALDARGGLDPLLR”, the “soluble on expression in E. coli” value was “not soluble”. In the case of “MVKCLSAHNKAPHVSVITPSYNSRRFIGETILSVQNQSYENWEMIIVDDCSTDQSAAKIKEIIEGDSRIRLLSLKENVGAAKARNLAIREARGRYIAFLDSDDIWLPHKLKTQLLFMEEMNIAFSYASYSLIDENGNELNREVSVPKSVDYHYLVGNTIIGCLTVMIDREKIPYVEMPSVQPEDTALWLNLLHEGHEAKGIQQVLAKYRIVANSVSSNKVRAAFRYWKLLRDQKSLNAVQSFYYFSKYAYHAYKKNKINVVGKTQLLEHHHHHH”, the “soluble on expression in E. coli” value is reported as “not soluble”. With “MAHHHHHHMASPASTNPAHDHFETFVQAQLCQDVLSSFQGLCRALGVESGGGLSQYHKIKAQLNYWSAKSLWAKLDKRASQPVYQQGQACTNTKCLVVGAGPCGLRAAVELALLGARVVLVEKRIKFSRHNVLHLWPFTIHDLRALGAKKFYGRFCTGTLDHISIRQLQLLLLKVALLLGVEIHWGVKFTGLQPPPRKGSGWRAQLQPNPPAQLASYEFDVLISAAGGKFVPEGFTIREMRGKLAIGITANFVNGRTVEETQVPEISGVARIYNQKFFQSLLKATGIDLENIVYYKDETHYFVMTAKKQCLLRLGVLRQDLSETDQLLGKANVVPEALQRFARAAADFATHGKLGKLEFAQDARGRPDVAAFDFTSMMRAESSARVQEKHGARLLLGLVGDCLVEPFWPLGTGVARGFLAAFDAAWMVKRWAEGAGPLEVLAERESLYQLLSQTSPENMHRNVAQYGLDPATRYPNLNLRAVTPNQVQDLYDMMDKE” the “soluble on expression in E. coli” value was “soluble”. For “MRLEFSIYRYNPDVDDAPRMQDYTLEADEGRDMMLLDALIQLKEKDPSLSFRRSCREGVCGSDGLNMNGKNGLACITPISALNQPGKKIVIRPLPGLPVIRDLVVDMGQFYAQYEKIKPYLLNNGQNPPAREHLQMPEQREKLDGLYECILCACCSTSCPSFWWNPDKFIGPAGLLAAYRFLIDSRDTETDSRLDGLSDAFSVFRCHSIMNCVSVCPKGLNPTRAIGHIKSMLLQRNA”, the “soluble on expression in E. coli” value was “soluble”.
